From patent US20220162261A1 (published 2022)
Bridge positions count the residues as written; N and C are the ends. Square brackets hold non-standard residues; d marks the D form. Ends that are not written are not given here. NMeR = CN[C@@H](CCCNC(=N)N)C(=O)O; NMeE = CN[C@@H](CCC(=O)O)C(=O)O; Pen = CC(C)(S)[C@H](N)C(=O)O

Each binder was assayed against T1, human α4β7 integrin on cells (human, UniProt P13612 34-1032; P26010 20-798) (assay: RPMI8866 cell adhesion to MAdCAM-1).
T1 construct: whole, on cells; also called α4β7 cell (Hu); RPMI8866 cells

Row | Binder | IC50 [nM]
1 | Ac-[Pen][NMeR]SDTL[Pen]W[βGlu][dK]-NH2 (disulfide 1-7; not fully specified (residue 10); printed as (Ac Pen N-Me-R S D T L Pen W Beta-E k NH2)2 DIG; also: homodimer: two subunits joined by DIG linker) [SEQ ID NO: 1] | > 50
2 | Ac-[Pen][NMeR]SDTL[Pen]W[NMeE][dK]-NH2 (disulfide 1-7; not fully specified (residue 10); printed as (Ac Pen N-Me-R S D T L Pen W N-Me-E k NH2)2 DIG, disulfide Pen-Pen; also: dimer, two subunits joined by DIG linker) [SEQ ID NO: 31] | > 50
3 | Ac-[Pen][NMeR]SDTL[Pen][dW]E[dK]-NH2 (disulfide 1-7; not fully specified (residue 10); printed as (Ac Pen N-Me-R S D T L Pen w E k NH2)2 DIG, disulfide Pen-Pen; also: dimer, two subunits joined by DIG linker) [SEQ ID NO: 28] | > 50
4 | Ac-[Pen][NMeR]SDTL[Pen]W[dE][dK](Ac) (disulfide 1-7) [SEQ ID NO: 66] | > 10000
5 | Ac-[Pen][NMeR]SDTL[Pen]HY[dK]-NH2 (disulfide 1-7; not fully specified (residue 10); printed as (Ac Pen N-Me-R S D T L Pen H Y k NH2)2 DIG, disulfide Pen-Pen; also: dimer, two subunits joined by DIG linker) [SEQ ID NO: 26] | > 100
6 | Ac-[Pen][NMeR]SDTL[Pen]WE[dK](Ac) (disulfide 1-7) [SEQ ID NO: 65] | > 10000

The next lines start with the values.

Row | IC50 [nM] | Binder
7 | > 10 | Ac-[dK]C[NMeR]SDTLCW[dK]-NH2 (disulfide 2-8 (inferred); also: dimer linked by DIG, attachment not given here) [SEQ ID NO: 4]
8 | > 10 | Ac-[Pen][NMeR]SDTL[Pen]HE[dK]-NH2 (disulfide 1-7; not fully specified (residue 10); printed as (Ac Pen N-Me-R S D T L Pen H E k NH2)2 DIG, disulfide Pen-Pen; also: dimer, two subunits joined by DIG linker) [SEQ ID NO: 25]
9 | > 25 | Ac-[Pen][NMeR]SDTL[Pen]W[dE][dK]-NH2 (disulfide 1-7; not fully specified (residue 10); printed as (Ac Pen N-Me-R S D T L Pen W e k NH2)2 IDA PEG4 Biotine, disulfide Pen-Pen; also: homodimer: two subunits linked by IDA via D-Lys10 side chain, PEG4-Biotine on the linker) [SEQ ID NO: 72]
10 | > 25 | Ac-[Pen][NMeR]SDTL[Pen]W[dE][dK]-NH2 (disulfide 1-7; not fully specified (residue 10); printed as (Ac Pen N-Me-R S D T L Pen W e k NH2)2 IDA, disulfide Pen-Pen; also: homodimer via IDA linker) [SEQ ID NO: 70]
11 | > 25 | Ac-[Pen][NMeR]SDTL[Pen]W[dE][dK]-NH2 (disulfide 1-7; not fully specified (residue 10); printed as (Ac Pen N-Me-R S D T L Pen W e k NH2)2 IDA Biotine, disulfide Pen-Pen; also: homodimer via IDA linker bearing biotin) [SEQ ID NO: 71]
